Experimental data: patent US11066655B2, “RNA polymerase, methods of purification and methods of use” (President and Fellows of Harvard College, priority 2013, dated 2021)

B1: Syn5 RNAP: single subunit DNA-dependent RNA polymerase from marine cyanophage Syn5, amino acid sequence SEQ ID NO:23 (protein)
chain: MSFDLIARQLQRETEAAELARKRLQDARREANERSYASSNIESRKAIATFLDPIAQRIGERLFTLRRGTGAVDAAEVYKHLKNADHHHLALITMKTALDVLGKDPEPQIQQLTTAIGRNIQLELRLTYYAEENPELYKQASRFFHAGTGTRQKATVIKLKFNREGIEWDQWSRVTCHKVGQWLMLAMADVTGWIERATDRTSGGRKTKTRICYSREFLQHRDTILAAAEQLAFCQWPMLCPPIEWSNDHNGGYLSEQIRRVNPLIRKTGPLGTRKQGDIPLAMLNNLQGQAYKVNPEVLDIANHCYESNVTVGKFIRHAPLPVPPSPGEDCTEDQLTAYKRARREAEDFNAQISQKNWRTTEVMYVARKYADEASFWMPASFDYRGRVYFLNTALNPQGTDFDKALLYFAEEGPVNEWWLSFHVATTYGLDKETMVNRVQWARDNHELIDRIASDPVRHTEWHDADEPWCFLAACLEYKACVIDGTKQTSGLPIGIDATCSGLQHLAAMTRCGRTAALVNVTPTDKPADAYKTVAQASLKHLPKEQHEWITRKVTKRPVMCTPYGVTMSSARGYIRDQLVKDGHKEDLRSPGVLNGIVKAIFNEAIPEVIPGPVQVMAWLKRSAGQIIDRGDSTITWTTPSGFEVVQDLKKSKTYEVKTRIMGGARIKLQVGDGFTDEPDRDHHKSALAPNVVHSNDASLLHLTFAFWDKPFTVIHDCVLGRSCDMDQMGSDIRLHFAEMYKADVMQDWADQVGVELPVDLIKNTLDIDSVNQSLYFFS
modifications: Amino acid sequence of a cyanophage Syn5 RNAP

Columns and labels:
[1] = Chamberlin et al. (1973); cited from earlier work
[2] = tested on: DNA templates with Syn5 promoter; assay: Gel assay of transcription products with MgCl2, FeCl2 or MnCl2 as cofactor; assay type: biochemical
Procedure: FIG. 6 depicts a comparison of Syn5 RNAP transcription products in the presence of MgCl2, FeCl2 or MnCl2 on denaturing gels. Reactions contained 200 µM ATP, GTP, UTP and 10 µM[…]-^32P]CTP, 50 nM Syn5 RNAP, DNA templates (1 µM template as shown in FIG. 3A for 71 nt runoff transcript, 4 nM template 3 as shown in FIG. 3C for 225 nt product, or 1 µM template 1 as shown in FIG. 3B for 37 nt runoff transcript).
For the gel assay results shown in FIGS. 1, 2, 3, and 13, reaction mixtures (20 μl) contained 40 mM Tris-HCl (pH 7.9), 6 mM MgCl2, 2 mM spermidine, 10 mM DTT, 200 µM[…]P, GTP and UTP, 10 µM [[…]-^32P]CTP, 1.5 U/µl RNaseOUT™ recombinant ribonuclease inhibitor (Invitrogen), 100 nM Syn5 or T7 RNAP, and DNA templates as described in the figure legends (either 2 nM phage genomic DNA, 4 nM purified PCR products, or 1 µM synthetic dsDNA fragments). Reaction mixtures were incubated at 24° C. for 30 min. The reaction mixtures described in FIG. 6 contained 40 mM Tris-HCl (pH 8.0), 200 µM[…]P, GTP and UTP, 10 µM [[…]-^32P]CTP, 1.5 U/µl RNaseOUT™, 50 nM Syn5 RNAP, DNA templates, and various amounts of MgCl2, FeCl2, MnCl2 and KCl as described in the figure legends. After 30 min incubations at 24° C., one unit of RQ1 RNase-Free DNase (Promega) was added to each reaction mixture and incubated for an additional 20 min at 37° C. to remove the DNA templates. Reactions were then terminated by the addition of 8 µl of loading dye containing 95% formamide and 40 mM EDTA. Samples were then heated at 90° C. for 1 min and loaded onto either 10% or 25% TBE-Urea denaturing gels. After electrophoresis, gels were dried and analyzed using a Fuji BAS 1000 Bioimaging Analyzer.

plasmid pET24-S5 RNAP = assay: Incorporation of AMP by RNA polymerases from the improved purification; assay type: biochemical
Procedure: FIGS. 8A-8B depict RNA polymerases described further herein. A) SDS-PAGE gel of Syn5 RNA polymerase purified as previously reported (S50, 18), newly purified Syn5 RNA polymerase using Ni-NTA chromatography in the presence of 2 M NaCl (S5N1), newly purified Syn5 RNA polymerase purified using Ni-NTA and gel filtration chromatography in the presence of 2 M NaCl (S5N2), and T7 RNA polymerase. B) Incorporation of AMP at RT by 50 nM RNA polymerases shown in A). A plasmid with both a Syn5 and T7 promoter was used as template for transcription.
Reactions for FIG. 8B contained 40 mM Tris-HCl pH 8.0, 2 mM spermidine, 10 mM DTT, 200 µM[…] GTP, C[…]P, UTP and ^3H-ATP (20 cpm/pmole), 1.5 U/µl RNaseOUT™, 50 nM Syn5 or T7 RNAP and 4 nM plasmid pET24-S5 RNAP. Reaction mixtures were incubated at room temperature (RT, ˜24° C.). After various times the reactions were stopped by the addition of 20 mM EDTA. 4 µl of the mixtures were then loaded onto Whatman DE81 filter paper disks and the disks were washed to remove the unincorporated ^3H-ATP. The amount of insoluble ^3H-AMP, corresponding to nucleotides incorporated into newly synthesized RNA, was measured using a scintillation counter. The data were analyzed using Prism software.

[3] = tested on: dsDNA template S5PhmttRNAProUGG; assay: Synthesis of human mt tRNAPro, short RNA, optimized conditions; assay type: biochemical
[4] = tested on: dsDNA template (1, 2 or 3); assay: Incorporation of 2′-F-dNTP into RNA by wild-type Syn5 RNA polymerase (Mg buffer); assay type: biochemical
Excerpt: FIG. 24 depicts gels showing incorporation of 2′-F-dNTP into RNA using WT Syn5 RNA polymerase.
According to certain aspects of the invention, wild-type Syn5 RNA polymerase was used in methods described herein for high yield 2′-F RNA synthesis, with DNA templates that allow incorporation of fewer than three 2′-F-dNTP into the first 12 nt of a full-length transcript and in a non-consecutive manner. Transcription initiation (synthesis of 2-12 nt RNA) can be the most unstable stage for an RNA polymerase. Once transcripts are extended over 12 nt, transcription elongation is robust and stable. To determine whether the incorporation of 2′-F-dNTP during the transcription initiation stage is a rate-limiting step of Syn5 RNA polymerase, Syn5 RNA polymerase transcription in the presence of 2′-F-dNTPs on DNA templates that allow various amounts of 2′-F-dNTP incorporation into the first 12 nt of the RNA products was compared. The following conditions were used.
The reaction components were incubated at 37° C. for 4 hrs. Then 0.4 µl of the reaction mixture were loaded onto 10% TBE gel and stained with ethidium bromide. […] See FIG. 1. lane 1 vs 2; 8 vs 7; 15 vs 14. […] Template 1 has also 3Gs but two of them are consecutive. […] See FIG. 1. lane 10 vs 7; lane 17 vs 14). […] Although there are only 2 Cs in the 1-12 nt region of template 1, two consecutive incorporations during the initiation stage prevented the efficient synthesis of RNA products containing 2′-F-dCMP. With template 3 starting with C, 2′-F-dCTP was still efficiently incorporated.

Molecule | temperature of maximum activity [1] [°C] | transcription with ferrous as cofactor ([2]; 2 mM FeCl2) | longer transcripts (e.g. 225 nt) in the presence of iron ([2]; FeCl2) | maximum yield of short runoff products ([2]; manganese 0.25 to 1 mM versus magnesium) | N+1 runoff product ([2]; manganese versus magnesium) | efficiency of iron as a cofactor ([2]; versus magnesium) | activity of enzyme purified by Ni-NTA and gel filtration (plasmid pET24-S5 RNAP; 50 nM RNAP, RT) | increase of specific activity by improved purification (2 M NaCl) (plasmid pET24-S5 RNAP; versus previous three-step purification) [fold] | estimated yield of RNA ([3]; 100 µl transcription reaction) [nmole/100 µl] | enzyme activity ([3]; at 42° C.) | reduction of yield ([3]; final NTP 4 mM instead of 8 mM) | full-length products containing 2′-F-dUMP ([4]; template 1 and 3) | incorporation of 2′-F-dUTP ([4]; template 2) | incorporation of 2′-F-dCTP ([4]; template 2 and 3) | full-length transcript with ATP replaced by 2′-F-dATP ([4]; templates 1, 2, 3) | discrimination against 2′-F-dCTP ([4]; transcription elongation)
T7 RNAP: RNA polymerase encoded by bacteriophage T7, from New England Biolabs [reference compound] | 37 | – | – | – | – | – | – | – | – | – | – | – | – | – | – | –
B1 | – | produce a 71 nt runoff transcript identical to that produced in the presence of MgCl2 | did not produce longer transcripts | higher in the presence of manganese | significantly higher with manganese than that with magnesium | several times less than that of magnesium | close to that of T7 RNAP | 2 | 4 | very low | approximately 20% | low yield | efficient incorporation | incorporated very well | none of them produces full-length transcript | no intrinsic discrimination against 2′-F-dCTP
